According to a protein production outcome set (Wang et al. 2014):

Test: label from the status in PepcDB records

Sequence | protein production
MAAVRKIHVTVKFPSKQFTVEVDRTETVSSLKDKIHIVENTPIKRMQLYYSGIELADDYRNLNEYGITEFSEIVVFLKSINRAKD | not failed
MAAWVCILGQMKPDPETKPDPMRQTAQPAPQRLLRHLPLIVIVLIAVIGAITLRDYLSFDTLAANRQALLAYREAHYAALAAIFVATYVLIVAFSLPGAAVASMTGGFLFGLAVGTVLNVVAATIGAVAIFLAARAGLGAMLTARLEASEGTVKRLKEGLRRNEIEVLFLLRLVPAVPFFAANLIPALVGVKLRNYVLTTALGIVPGAIVFTWIGVGLGGVFDRGESPDLSLFREPFVIGPILGLCLLAALPIAIKALRGKPEGE | failed
MACHELSALRIAIGELLEKEAHDLLHEREELAPVLGQRPELKRLAEAKTLPALEEALREALLHLEERAAQEPEEPYWRGLLLAVEAMEGRLKALRAEAEALYQDLDALHGRLHRLFPRRR | not failed
MADHNNTPPFDLTKLDHYIKYQPREEAEDFFVHVEVKVLGKGSSPLEISFSTSVYEFVWEDEDCYELVELYEFFTEDAGIDAFEAQFLVNDLILYVNKTTRPLDEDFTGVFKLMAEVTLKPVQLNHAGSQKTESQQP | failed
MADIIGLLLPFFGLIFIGYGAARITKQPVEAMGWLNTFIIYAALPALFFKLVSKTPVEELARMDFVAASLACTYGIFLAVFLIGRFVRRNSLAETTIQSFAASYGNIGYMGPGLALLALGEKAAVPVALIVCLENAAHFIVAPAMMAVAGGDKRSAGKLALDVARKVITHPFIVSVIAGFLAASLSWQPPEAVQRLVDYLAQSAAPCALFAMGVTLALRPMKRVPVEISYIVPAKLILHPLAAYLVLSSLGRFEPVWIYSAVLLAALPTATNVFVIGQQYHVWQERASATILISTVLSVFTLTGVVYFIQPF | failed
MADIPKSPTEPNKPVDTKLQVDPNTPVDPKPPVVEPKPPVVDPKPPVVDPKPPEPTHPTITVSPKTGDILVEWYAGNGKYYSSVFFNDFYTSQKELDENALNNLTNYYSKKEDWTLVSQLNTPSKSKSVAEHKLALDNVEQILTSGEYSNERALFYLRNQMNVLNESVTTQEELQRYLSENKKDYIKSVAEKVYQTATEEKREWSNTGDVASLEQALSKFYLVTSVFESVDPALV | failed
MADKEKKKKESILDLSKYIDKTIRVKFQGGREASGILKGFDPLLNLVLDGTIEYMRDPDDQYKLTEDTRQLGLVVCRGTSVVLICPQDGMEAIPNPFIQQQDA | failed
MADKQPAVNRVVAALLVGGALIAAGYAIRHTVSCFLLSFVTAYLLDPVLVVMERRGVRRPWGILFLYALLAVFSVFFFIVLVPFLSLRWEAFITGLPAYLQKGKQIVFAWKSRAVPPYAVEEWRWLFDTAAGQADKLLAKLGAGVYAAAEGLVFNLFNLVLAPILVFFMLWYKKEFMETAAAWLPASRREVLLALGREVNESIGGYIRGQFMVSVIVAVLSTVALFVIGIDYPIVNGIFAGLASVLPFIGVILATLPPLFFAYVQYESGMVLLQVIGAFSVIYFLEGYLVKPLVFKESMDLNPLVTIIVVMVFGELMGFWGILLAIPIAAAVRAAADHLRRGDFRS | failed
MADLTHEFWDRLEDVRSGMLGIKGQGRLIPMSPQTDDDAPGAIWFITAKGTDLAKGVAAGPQPAQFVVSDDGEGLYADLDGTLERSTDREALDEFWSFVADAWFDGGQHDPDVCLLKFTPASGEISITEGGGARFLYEIAKAHLTDETPDMGEQATVTF | not failed
MADNINESEIIERLNSAPSVRGFFIATVDVFNESIDGLIQRIFRKDNFAVQSVVGPLLQDSGPLGDLSVRLKLLFGLGVLPDDIYHDIEDIIKLKNHLNSDASDYEFTDPNILEPIKKLHLVKKMGMVQLEVNEPDDDIDLEFYQLQLQRQQQIIKSGLSLAIVEICNELGK | not failed
MADNKVNLSINGQSKVPPGFRFHPTEEELLHYYLRKKVNSQKIDLDVIREVDLNKLEPWDIQEECRIGSTPQNDWYFFSHKDKKYPTGTRTNRATVAGFWKATGRDKIICSCVRRIGLRKTLVFYKGRAPHGQKSDWIMHEYRLDDTPMSNGYADVVTEDPMSYNEEGWVVCRVFRKKNYQKIDDCPKITLSSLPDDTEEEKGPTFHNTQNVTGLDHVLLYMDRTGSNICMPESQTTTQHQDDVLFMQLPSLETPKSESPVDQSFLTPSKLDFSPVQEKITERPVCSNWASLDRLVAWQLNNGHHNPCHRKSFDEEEENGDTMMQRWDLHWNNDDNVDLWSSFTESSSSLDPLLHLSV | failed
